Assay results taken from article PMC5374524, “Label-free quantification of calcium-sensor targeting to photoreceptor guanylate cyclase and rhodopsin kinase by backscattering interferometry” (Scientific Reports, 2017).
Values belong to the molecule of their own block, whether it stands above or below them.

What was measured:
[1] = target: full-length human photoreceptor guanylate cyclase GC-E (human) (UniProt Q02846); assay: backscattering interferometry (BSI); free solution; HEK cell vesicles with full-length human GC-E (50 μg/mL total protein before mixing) with 0-10 μM GCAP; 30 mM Mops/KOH pH 7.2, 60 mM KCl, 4 mM NaCl, 1 mM DTT, 3.5 mM MgCl2, 1 mM GTP, 0.3 mM ATP; 1 mM EGTA; Mock-HEK vesicles as reference; apparent KD
[2] = target: MBP-KHD: maltose binding protein fused to the juxta-membrane and kinase homology domain of human GC-E (M496-K806) (human) (UniProt Q02846); assay: ITC; VP-ITC, 25 °C; MBP fusion protein 0.5 μM in the cell, GCAP 10 μM in the syringe; 30 mM Mops/KOH pH 7.2, 60 mM KCl, 4 mM NaCl, 1 mM DTT, 3.5 mM MgCl2, 1 mM GTP, 0.3 mM ATP; injections into MBP subtracted; one binding site model; data not shown
[3] = target: MBP-KHD: maltose binding protein fused to the juxta-membrane and kinase homology domain of human GC-E (M496-K806) (human) (UniProt Q02846); assay: backscattering interferometry (BSI); free solution; myristoylated GCAP 0 to 6 μM with constant 375 nM MBP fusion protein; titration buffer with 200 μM Ca2+; MBP lacking a GC-E fragment as reference
[4] = target: full-length human photoreceptor guanylate cyclase GC-E (human) (UniProt Q02846); assay: backscattering interferometry (BSI); free solution; HEK cell vesicles with full-length human GC-E with 0-10 μM GCAP; titration buffer with saturating 200 μM Ca2+; Mock-HEK vesicles as reference
[5] = target: T1, myristoylated bovine recoverin (bovine, UniProt P21457 1-202, myristoylated); assay: backscattering interferometry (BSI); free solution, label-free; recoverin dilution series with constant 4 μM GST-NRK; 20 mM HEPES/KOH pH 7.5, 100 mM NaCl, 1 mM MgCl2, 200 μM CaCl2; GST alone as reference; one site binding model; conditions: both partners purified
T1 construct: recoverin, bovine, neuronal Ca2+-sensor protein of photoreceptors
T1 sequence (looked up): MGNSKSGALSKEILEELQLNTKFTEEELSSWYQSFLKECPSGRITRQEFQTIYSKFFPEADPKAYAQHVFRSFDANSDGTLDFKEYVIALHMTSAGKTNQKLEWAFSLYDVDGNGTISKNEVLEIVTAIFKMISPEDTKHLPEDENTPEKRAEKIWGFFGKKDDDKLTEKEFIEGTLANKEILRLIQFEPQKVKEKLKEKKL

[6] = target: T2, full-length human photoreceptor guanylate cyclase GC-E (human, UniProt Q02846 52-1103); assay: backscattering interferometry (BSI); free solution; HEK cell vesicles with full-length human GC-E (50 μg/mL total protein before mixing) with 0-10 μM GCAP; 30 mM Mops/KOH pH 7.2, 60 mM KCl, 4 mM NaCl, 1 mM DTT, 3.5 mM MgCl2, 1 mM GTP, 0.3 mM ATP; 1 mM EGTA; Mock-HEK vesicles as reference; apparent KD; conditions: one partner purified
T2 construct: also called guanylate cyclase 1; guanylate cyclase type 1
T2 sequence (looked up): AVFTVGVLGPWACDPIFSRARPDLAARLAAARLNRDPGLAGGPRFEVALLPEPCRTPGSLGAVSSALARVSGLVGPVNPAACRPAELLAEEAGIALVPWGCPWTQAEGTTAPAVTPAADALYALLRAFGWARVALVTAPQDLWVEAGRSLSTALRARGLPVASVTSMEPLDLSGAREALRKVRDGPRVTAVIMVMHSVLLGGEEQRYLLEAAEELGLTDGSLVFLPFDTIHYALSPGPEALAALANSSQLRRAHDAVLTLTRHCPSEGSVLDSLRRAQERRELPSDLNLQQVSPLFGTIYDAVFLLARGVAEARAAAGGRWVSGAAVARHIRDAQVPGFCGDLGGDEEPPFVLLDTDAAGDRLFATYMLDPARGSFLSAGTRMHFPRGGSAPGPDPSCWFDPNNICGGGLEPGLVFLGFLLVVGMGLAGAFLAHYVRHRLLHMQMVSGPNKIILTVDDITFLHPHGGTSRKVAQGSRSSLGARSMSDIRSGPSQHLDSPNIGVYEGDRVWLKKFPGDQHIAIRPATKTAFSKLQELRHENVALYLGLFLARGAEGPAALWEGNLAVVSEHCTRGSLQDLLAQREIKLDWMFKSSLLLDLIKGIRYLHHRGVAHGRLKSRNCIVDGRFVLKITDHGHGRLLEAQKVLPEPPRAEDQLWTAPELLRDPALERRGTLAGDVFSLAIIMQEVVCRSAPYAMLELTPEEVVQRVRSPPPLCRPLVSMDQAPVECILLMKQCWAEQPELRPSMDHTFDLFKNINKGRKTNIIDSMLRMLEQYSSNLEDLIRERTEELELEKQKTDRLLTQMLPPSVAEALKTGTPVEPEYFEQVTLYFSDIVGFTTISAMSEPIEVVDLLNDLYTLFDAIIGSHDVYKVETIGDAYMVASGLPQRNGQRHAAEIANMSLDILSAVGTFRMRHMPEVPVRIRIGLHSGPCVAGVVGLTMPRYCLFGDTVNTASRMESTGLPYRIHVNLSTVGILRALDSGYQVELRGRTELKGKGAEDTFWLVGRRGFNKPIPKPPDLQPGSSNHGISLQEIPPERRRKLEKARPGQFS

[7] = target: T2, full-length human photoreceptor …; assay: backscattering interferometry (BSI); free solution; HEK cell vesicles with full-length human GC-E with 0-10 μM GCAP; titration buffer with saturating 200 μM Ca2+; Mock-HEK vesicles as reference; conditions: one partner purified

- Kd [1]: 663 nM
- Kd [2]: 580 nM
- stoichiometry N [2]: 0.9
- Kd [3]: 841 nM
- Kd [4]: 505 nM
Molecule: guanylate cyclase-activating protein 1 (GCAP1), myristoylated (from UniProt P46065 1-205) (natural protein)

- Kd [5]: 4720 nM
B1: GST fusion protein containing the N-terminal 25 amino acids of bovine GRK1 (domain or fragment, UniProt P28327 1-25, looked up)
chain: MDFGSLETVVANSAFIAARGSFDAS
notes: rhodopsin kinase GRK1, bovine, the N-terminal 25 amino acids; also called NRK; N-terminal GRK1 fragment

- Kd [6]: 231 nM
- Kd [7]: 418 ± 135 nM
B2: guanylate cyclase-activating protein 2 (GCAP2), myristoylated (natural protein, UniProt P51177 1-204, looked up)
chain: MGQQFSWEEAEENGAVGAADAAQLQEWYKKFLEECPSGTLFMHEFKRFFKVPDNEEATQYVEAMFRAFDTNGDNTIDFLEYVAALNLVLRGTLEHKLKWTFKIYDKDRNGCIDRQELLDIVESIYKLKKACSVEVEAEQQGKLLTPEEVVDRIFLLVDENGDGQLSLNEFVEGARRDKWVMKMLQMDLNPSSWISQQRRKSAMF
modifications: myristoylated
